# B1: Hairpin Ribozyme (parent)
# chain: GUCCUCUUUCACGUGCGCGUGAAAGAGAGAAGUGAACCAGAGAAACACACGUUGUGGUAUAUUACCUGGUA
# Variants of: B1
# Assay: self-cleavage, relative activity (ratio to wild type); higher = more cleavage; co-transcriptional
row,Variant,self-cleavage
1,G17C A30U,0.118
2,G17C A30G,0.0659
3,C18A C46G,0.12
4,C16G C66U,0.422
5,C18A C38G,0.213
6,C18A C38U,0.526
7,C16U U60C,1.26
8,C16G G17A,0.894
9,C16G G17C,0.717
10,C18A A24G,0.95
11,G17U C37U,0.564
12,G17U C37G,0.256
13,G17C A24C,0.614
14,C18A G54U,0.62
15,C16U A47C,0.567
16,C16U A47G,0.16
17,G17C A36U,0.356
18,C16U G40C,0.11
19,C16U G40A,0.276
20,C18A A35C,1.2
21,C16A U70G,0.461
22,G17A A44C,0.119
23,G17A A44G,0.233
24,C18A A23G,1.02

row,Variant,self-cleavage
1,G17U C18G,0.979
2,G17U C18U,0.926
3,G17U C18A,0.966
4,C16U U20G,1.01
5,C16U A45U,0.128
6,C16U A45G,0.135
7,G17U A47C,0.347
8,C18A U20C,0.97
9,G17A U20C,1.13
10,C18A A36C,0.711
11,G17C G69C,0.124
12,C16G G25U,0.547
13,C16G G25C,0.302
14,C18A A41U,1.37
15,C16U C38U,0.443
16,C16U C38G,0.206
17,C16G A23C,0.763
18,C18A A47U,0.181
19,G17C C48A,0.173
20,G17C A28G,0.957
21,G17C A28C,0.347
22,G17C A28U,0.28
23,C16G U53C,0.949
24,C16G U20C,0.868

row,Variant,self-cleavage
1,C16U G19C,0.867
2,G17U U33A,0.116
3,C18G A24C,0.731
4,C18G A24G,0.927
5,C16U G69C,0.396
6,C16G G34A,0.883
7,C16G G34U,1.34
8,G17C A26G,0.709
9,G17C A26U,0.414
10,C18A G56C,0.136
11,G17U A49C,0.177
12,G17C C37U,0.542
13,G17U G56A,0.194
14,G17U G56C,0.126
15,C18A C65G,0.091
16,C16U A31U,0.211
17,C16U A31G,0.742
18,C16U U67A,0.325
19,C16G G27C,0.222
20,C16G G27U,0.106
21,C16G G27A,0.37
22,C16G A47C,0.293
23,G17C U58G,0.432
24,G17U G57A,0.201

row,Variant,self-cleavage
1,G17U G57C,0.151
2,G17U G57U,0.264
3,C16U A59C,0.17
4,C16U A59G,0.109
5,G17U C38G,0.158
6,C18A U67G,0.329
7,C18A U67A,0.191
8,G17A C65G,0.485
9,G17A C66G,0.268
10,C16U G51A,1.06
11,C18A G57U,0.439
12,G17A G27C,0.074
13,C18G A23C,0.746
14,C16G A36C,0.399
15,C16G A36G,1.06
16,C16G C46U,0.0715
17,G17C U63C,0.276
18,G17U A64U,0.16
19,G17U A64C,0.245
20,G17C C50A,0.248
21,G17C C50U,0.286
22,C18A C50G,0.309
23,C16U U70G,0.722
24,C16G U58C,1.06

row,Variant,self-cleavage
1,G17U A44G,0.273
2,G17C U60A,0.582
3,G17A U62G,0.0926
4,G17A U62C,0.166
5,G17A G68U,0.243
6,C16G C65A,0.976
7,C16G C65U,0.167
8,G17U A30G,0.134
9,C16U A39U,0.312
10,C16U A39C,0.641
11,G17U A59G,0.192
12,C18A G32U,0.135
13,C16G A39U,0.355
14,C16G A39G,0.288
15,G17A A61G,0.107
16,G17C U62A,0.115
17,G17U G69C,0.296
18,C16G U55C,0.239
19,G17C A22U,0.644
20,G17U C48U,0.11
21,G17U C48G,0.0807
22,G17A G69U,0.203
23,G17C A43G,0.131
24,G17C A43C,0.118

row,Variant,self-cleavage
1,G17C A41U,1.27
2,C18A A44C,0.219
3,C16U G57A,0.272
4,G17A G19U,1.02
5,C18A G68A,0.272
6,C16U G29C,0.1
7,G17C U52A,0.816
8,G17C U52G,0.821
9,C16G G57C,0.108
10,G17A G32U,0.123
11,G17A G32C,0.0599
12,G17A A35C,0.945
13,G17A A35G,1.2
14,C16U A22G,1
15,C16U A22U,0.972
16,C16G G19A,0.646
17,G17U C50U,0.326
18,G17U C50A,0.232
19,G17U U60C,1.35
20,G17U C65G,0.269
21,G17U C65A,0.892
22,C18A G27U,0.332
23,C18A A45G,0.187
24,G17A G54C,0.429

row,Variant,self-cleavage
1,G17A G54U,0.667
2,G17U G21A,0.491
3,C18A G19U,0.923
4,G17C A45U,0.12
5,G17A A39U,0.44
6,G17C A31U,0.0868
7,G17C A31C,0.172
8,G17C A59U,0.122
9,G17U A45C,0.156
10,C16G C18A,1.03
11,G17U U52G,0.8
12,G17U U52A,1.21
13,G17C G51A,0.718
14,G17C G51C,0.668
15,C18A U58G,0.652
16,C18A U58A,0.577
17,C16U A43G,0.0631
18,C16U A43U,0.134
19,C16U G56A,0.208
20,C16G A71U,0.552
21,C16G A41G,0.593
22,C16G A41U,1.35
23,G17A G40C,0.153
